{
  "source": "patent US20240261333A1",
  "about": "(published 2024)",
  "key": {"TPM3": {"target": "T1, TPM3 (human, UniProt P06753-2 2-248)", "T1 construct": "also called NP_705935.1", "T1 sequence (P06753 other isoform, or with tags, fused parts or gaps limits assumed)": "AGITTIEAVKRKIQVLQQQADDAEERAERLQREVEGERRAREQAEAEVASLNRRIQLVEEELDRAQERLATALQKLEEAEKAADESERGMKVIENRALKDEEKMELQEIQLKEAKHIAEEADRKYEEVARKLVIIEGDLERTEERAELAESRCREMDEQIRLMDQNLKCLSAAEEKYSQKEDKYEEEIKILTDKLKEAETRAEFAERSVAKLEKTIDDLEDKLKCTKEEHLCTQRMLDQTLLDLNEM", "assay": "co-IP with anti-FLAG, N-FLAG B3GNT2, mass spectrometry", "description": "Cells were plated in 10-cm cell culture dishes and grown to 60-80% confluency. For each condition, two biological replicates were harvested for co-IP. Cells were washed with PBS and 4 mL of lysis buffer (20 mM HEPES, 1% Triton X-100, 150 mM NaCl, 1 mM EDTA, and 10% glycerol) containing protease inhibitor cocktail was added. Cells were scraped and lysate was incubated at 4° C. under rotary agitation for 1 h. Lysate was centrifuged at 14,000×g for 10 min at 4° C. Supernatant was transferred to a new tube and an aliquot was taken as the input. […] For Western blots, 10 μg/mL Chicken Anti-FLAG (Aves labs ET-DY100) and IgY control (R&D Systems AB-101-C) antibodies were biotinylated (Thermo Fisher Scientific 90407) and added to the respective conditions. Lysates with antibodies were incubated at 4° C. under rotary agitation overnight. For each mL of lysate, 50 μL of Pierce Protein A/G Magnetic Beads (Mass spectrometry; Thermo Fisher Scientific 88803) or Pierce Streptavidin Magnetic Beads (Western blot; Thermo Fisher Scientific 88817) was washed twice with lysis buffer. Lysates with antibodies were added to the beads and incubated at 4° C. under rotary agitation for 4 h. Beads were washed with lysis buffer 3 times and resuspended in lysis buffer for storage.\nMagnetic beads were resuspended in 100 mM Tris pH 7.8, reduced, alkylated and digested with trypsin at 37° ° C. overnight. This solution was subjected to solid phase extraction to concentrate the peptides and remove unwanted reagents followed by injection onto a Shimadzu HPLC with fraction collector. Eight fractions were collected and after concentration were injected on a Waters NanoAcquity HPLC equipped with a self-packed Aeris 3 μm C18 analytical column 0.075 mm by 20 cm, (Phenomenex). Peptides were eluted using standard reverse-phase gradients. The effluent from the column was analyzed using a Thermo Orbitrap Elite mass spectrometer (nanospray configuration) operated in a data dependent manner for 54 minutes. The resulting fragmentation spectra were correlated against the known database using Proteome Discover 1.4 (Thermo Fisher Scientific)."}, "PRRC2A": {"target": "T2, PRRC2A (human, UniProt P48634 1-2157)", "T2 construct": "also called NP_004629.3 (+1)", "T2 sequence (P48634 whole entry)": "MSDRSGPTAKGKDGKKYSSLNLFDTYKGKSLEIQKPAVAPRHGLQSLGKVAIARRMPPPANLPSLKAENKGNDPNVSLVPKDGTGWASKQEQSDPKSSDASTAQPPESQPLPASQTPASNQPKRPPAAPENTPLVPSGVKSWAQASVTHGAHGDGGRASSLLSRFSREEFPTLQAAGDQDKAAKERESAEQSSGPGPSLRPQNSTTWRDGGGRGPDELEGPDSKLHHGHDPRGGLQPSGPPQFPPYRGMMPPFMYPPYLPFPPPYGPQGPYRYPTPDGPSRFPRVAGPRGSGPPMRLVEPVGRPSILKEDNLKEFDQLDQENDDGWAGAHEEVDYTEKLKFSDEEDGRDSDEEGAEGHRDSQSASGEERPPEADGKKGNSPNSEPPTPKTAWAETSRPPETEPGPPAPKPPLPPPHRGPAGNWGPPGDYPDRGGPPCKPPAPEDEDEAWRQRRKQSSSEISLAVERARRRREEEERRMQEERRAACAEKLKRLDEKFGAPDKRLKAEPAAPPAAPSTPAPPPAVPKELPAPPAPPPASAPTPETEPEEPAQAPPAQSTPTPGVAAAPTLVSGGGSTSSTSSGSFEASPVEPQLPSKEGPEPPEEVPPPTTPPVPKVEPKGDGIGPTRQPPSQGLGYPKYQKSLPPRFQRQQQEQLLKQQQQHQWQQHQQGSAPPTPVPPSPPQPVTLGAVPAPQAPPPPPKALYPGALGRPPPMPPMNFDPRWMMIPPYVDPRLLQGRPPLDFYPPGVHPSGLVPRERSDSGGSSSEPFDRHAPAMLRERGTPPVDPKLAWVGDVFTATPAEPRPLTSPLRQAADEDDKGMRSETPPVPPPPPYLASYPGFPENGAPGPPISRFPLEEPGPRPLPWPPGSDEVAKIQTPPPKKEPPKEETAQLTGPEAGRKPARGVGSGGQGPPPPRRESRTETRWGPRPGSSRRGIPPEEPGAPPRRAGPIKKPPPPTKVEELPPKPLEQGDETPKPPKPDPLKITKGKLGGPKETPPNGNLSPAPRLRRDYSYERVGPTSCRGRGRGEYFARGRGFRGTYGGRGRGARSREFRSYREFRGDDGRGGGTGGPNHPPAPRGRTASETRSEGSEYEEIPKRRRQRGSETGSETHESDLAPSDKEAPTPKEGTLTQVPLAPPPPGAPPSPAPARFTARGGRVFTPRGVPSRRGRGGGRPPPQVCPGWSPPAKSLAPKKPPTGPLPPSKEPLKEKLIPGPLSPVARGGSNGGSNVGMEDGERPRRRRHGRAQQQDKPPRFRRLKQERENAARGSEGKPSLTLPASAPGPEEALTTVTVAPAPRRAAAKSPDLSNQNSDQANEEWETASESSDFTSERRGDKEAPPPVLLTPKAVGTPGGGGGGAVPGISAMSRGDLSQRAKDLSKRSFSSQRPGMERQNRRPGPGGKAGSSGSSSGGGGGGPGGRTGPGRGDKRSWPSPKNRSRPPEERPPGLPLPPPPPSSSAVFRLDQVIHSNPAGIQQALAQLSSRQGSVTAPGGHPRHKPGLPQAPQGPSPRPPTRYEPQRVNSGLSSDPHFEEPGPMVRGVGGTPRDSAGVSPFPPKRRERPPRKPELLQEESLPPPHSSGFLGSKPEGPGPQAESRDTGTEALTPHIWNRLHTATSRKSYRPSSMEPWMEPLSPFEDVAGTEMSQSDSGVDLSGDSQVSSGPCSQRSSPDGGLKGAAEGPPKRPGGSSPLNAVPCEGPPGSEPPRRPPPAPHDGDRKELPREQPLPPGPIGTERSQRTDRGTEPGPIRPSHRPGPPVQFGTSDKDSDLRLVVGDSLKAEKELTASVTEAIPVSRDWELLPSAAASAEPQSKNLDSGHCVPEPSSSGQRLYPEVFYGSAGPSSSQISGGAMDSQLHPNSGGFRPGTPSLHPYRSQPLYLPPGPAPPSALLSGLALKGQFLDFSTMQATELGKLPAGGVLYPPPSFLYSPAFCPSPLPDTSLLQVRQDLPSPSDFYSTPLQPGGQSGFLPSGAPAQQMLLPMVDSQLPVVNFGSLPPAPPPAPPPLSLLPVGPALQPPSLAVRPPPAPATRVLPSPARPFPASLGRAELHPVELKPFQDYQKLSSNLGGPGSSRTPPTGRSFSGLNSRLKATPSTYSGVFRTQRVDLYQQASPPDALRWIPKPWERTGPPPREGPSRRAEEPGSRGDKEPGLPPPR", "assay": "co-IP, anti-FLAG, lysate of cells with N-FLAG B3GNT2; mass spectrometry"}, "NUFIP2": {"target": "T3, NUFIP2 (human, UniProt Q7Z417 1-695)", "T3 construct": "also called NP_065823.1", "T3 sequence (looked up)": "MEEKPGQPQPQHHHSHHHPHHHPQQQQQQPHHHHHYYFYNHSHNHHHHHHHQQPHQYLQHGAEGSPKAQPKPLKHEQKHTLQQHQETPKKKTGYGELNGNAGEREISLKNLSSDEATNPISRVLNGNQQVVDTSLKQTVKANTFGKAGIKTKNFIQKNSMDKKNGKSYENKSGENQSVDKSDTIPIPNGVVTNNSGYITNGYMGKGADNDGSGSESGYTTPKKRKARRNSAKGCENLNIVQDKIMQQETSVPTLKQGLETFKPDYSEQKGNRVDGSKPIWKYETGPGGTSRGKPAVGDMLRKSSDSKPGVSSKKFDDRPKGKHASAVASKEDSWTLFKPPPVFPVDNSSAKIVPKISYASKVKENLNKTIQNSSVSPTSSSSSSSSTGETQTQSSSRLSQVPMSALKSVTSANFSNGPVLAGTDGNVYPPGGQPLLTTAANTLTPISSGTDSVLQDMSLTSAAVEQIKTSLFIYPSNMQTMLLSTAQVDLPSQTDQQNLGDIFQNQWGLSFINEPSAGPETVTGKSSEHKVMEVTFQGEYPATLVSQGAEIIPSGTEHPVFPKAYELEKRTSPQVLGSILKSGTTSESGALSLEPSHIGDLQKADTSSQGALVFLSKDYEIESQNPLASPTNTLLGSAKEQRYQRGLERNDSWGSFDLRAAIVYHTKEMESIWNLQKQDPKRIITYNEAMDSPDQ", "assay": "co-IP, anti-FLAG, lysate of cells with N-FLAG B3GNT2; mass spectrometry"}, "CSE1L": {"target": "T4, CSE1L (human, UniProt P55060-4 1-915, limits assumed)", "T4 construct": "also called NP_001243064.1 (+2)", "T4 sequence (looked up)": "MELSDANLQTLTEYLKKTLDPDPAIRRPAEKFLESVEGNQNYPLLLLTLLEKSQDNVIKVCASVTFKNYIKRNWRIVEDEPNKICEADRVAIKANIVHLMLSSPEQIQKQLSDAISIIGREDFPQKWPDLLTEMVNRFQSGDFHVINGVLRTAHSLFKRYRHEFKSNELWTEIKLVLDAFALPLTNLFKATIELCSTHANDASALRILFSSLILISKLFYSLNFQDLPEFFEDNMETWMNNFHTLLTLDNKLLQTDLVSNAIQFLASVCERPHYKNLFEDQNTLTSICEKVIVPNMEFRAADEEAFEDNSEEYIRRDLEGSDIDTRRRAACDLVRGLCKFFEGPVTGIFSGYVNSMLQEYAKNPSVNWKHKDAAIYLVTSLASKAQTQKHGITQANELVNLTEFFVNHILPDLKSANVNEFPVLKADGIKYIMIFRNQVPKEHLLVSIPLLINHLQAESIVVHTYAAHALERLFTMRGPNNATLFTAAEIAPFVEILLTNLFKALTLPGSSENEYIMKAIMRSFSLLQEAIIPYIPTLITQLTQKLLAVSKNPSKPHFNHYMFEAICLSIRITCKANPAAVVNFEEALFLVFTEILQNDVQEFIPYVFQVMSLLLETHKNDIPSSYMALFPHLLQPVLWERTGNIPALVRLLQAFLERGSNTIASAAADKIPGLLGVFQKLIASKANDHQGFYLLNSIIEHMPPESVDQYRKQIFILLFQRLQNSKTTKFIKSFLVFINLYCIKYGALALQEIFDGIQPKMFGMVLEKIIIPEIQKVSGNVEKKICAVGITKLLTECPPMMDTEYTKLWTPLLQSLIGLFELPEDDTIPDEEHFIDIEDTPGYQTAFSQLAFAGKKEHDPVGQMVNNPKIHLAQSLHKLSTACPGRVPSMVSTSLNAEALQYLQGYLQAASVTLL", "assay": "co-IP, anti-FLAG, lysate of cells with N-FLAG B3GNT2; mass spectrometry"}},
  "data": [
    {"binder": "N-terminal FLAG tagged B3GNT2 (enzyme, human, UniProt Q9NY97 1-397, looked up, FLAG-tagged ORF overexpressed in cells; pulled down from lysate with mouse anti-FLAG; also called N-FLAG B3GNT2; N-term FLAG; not shown: N-terminal FLAG tag) MSVGRRRIKLLGILMMANVFIYFIMEVSKSSSQEKNGKGEVIIPKEKFWKISTPPEAYWNREQEKLNRQYNPILSMLTNQTGEAGRLSNISHLNYCEPDLRVTSVVTGFNNLPDRFKDFLLYLRCRNYSLLIDQPDKCAKKPFLLLAIKSLTPHFARRQAIRESWGQESNAGNQTVVRVFLLGQTPPEDNHPDLSDMLKFESEKHQDILMWNYRDTFFNLSLKEVLFLRWVSTSCPDTEFVFKGDDDVFVNTHHILNYLNSLSKTKAKDLFIGDVIHNAGPHRDKKLKYYIPEVVYSGLYPPYAGGGGFLYSGHLALRLYHITDQVHLYPIDDVYTGMCLQKLGLVPEKHKGFRTFDIEEKNKNNICSYVDLMLVHSRKPQEMIDIWSQLQSAHLKC", "values": [
      {"measurement": "co-IP mass spectrometry count", "setting": "TPM3", "value": 6}
    ]},
    {"binder": "N-terminal FLAG tagged B3GNT2 (enzyme, human, UniProt Q9NY97 1-397, looked up, Overexpressed in cells and pulled down from the lysate with mouse anti-FLAG antibody; also called N-FLAG B3GNT2; N-term FLAG; not shown: N-terminal FLAG tag) MSVGRRRIKLLGILMMANVFIYFIMEVSKSSSQEKNGKGEVIIPKEKFWKISTPPEAYWNREQEKLNRQYNPILSMLTNQTGEAGRLSNISHLNYCEPDLRVTSVVTGFNNLPDRFKDFLLYLRCRNYSLLIDQPDKCAKKPFLLLAIKSLTPHFARRQAIRESWGQESNAGNQTVVRVFLLGQTPPEDNHPDLSDMLKFESEKHQDILMWNYRDTFFNLSLKEVLFLRWVSTSCPDTEFVFKGDDDVFVNTHHILNYLNSLSKTKAKDLFIGDVIHNAGPHRDKKLKYYIPEVVYSGLYPPYAGGGGFLYSGHLALRLYHITDQVHLYPIDDVYTGMCLQKLGLVPEKHKGFRTFDIEEKNKNNICSYVDLMLVHSRKPQEMIDIWSQLQSAHLKC", "values": [
      {"measurement": "co-IP mass spectrometry count", "setting": "PRRC2A", "value": 2},
      {"measurement": "co-IP mass spectrometry count", "setting": "NUFIP2", "value": 3},
      {"measurement": "co-IP mass spectrometry count", "setting": "CSE1L", "value": 0}
    ]}
  ]
}
